The target of assay [1] is HIV-1 (Lai) Nef/SH3-Hck interaction (Human immunodeficiency virus type 1 group M subtype B, UniProt P03406). The note with it: for repression of the Nef-SH3 interaction as measured in the cell assay: COS-7 cells (FIG. 5B). An excerpt: This assay makes it possible to integrate the cellular toxicity and bioavailability parameters by means of quantitative and functional reading of the interaction between two protein partners.
The Checkmate™ commercial system (Promega) was adapted to the HIV-1 (Lai) Nef/SH3-Hck pair in COS-7 cell culture (FIG. 5). This system combines the expression of firefly luciferase under the control of the interaction between Nef and the SH3 domain of Hck, and the expression, which is independent, of renilla luciferase, a control for cell viability. The ratio of the intensity of these two luciferases makes it possible to quantify the activity of a Nef-SH3-interaction competitor capable of penetrating into the cell and the half-life of which is sufficient over the time period of the analysis. Other protein interactions are also reconstituted in this assay: one, which is non-SH3 (between Id and MyoD), in order to exclude the compounds having a nonspecific activity on the luciferase expression, and the other between SH3 of Hck and the SAM68 protein, in order to identify the compounds which interact via the SH3 domain and not via Nef.
The cells are transferred using Fugene6 (Roche), according to the distributor's protocol. Briefly, the plasmids PG5 (300 ng), pAct or pActNef (400 ng), pBindHckmutated or pBindHck (100 ng) and pbcks (200 ng) are mixed, and then the Fugene 6 (3 μl diluted in 100 μl of DMEM culture medium) is added. The plasmids/Fugene6 mixture is left to react for a period of 15 min at ambient temperature, and is then deposited dropwise into the cell culture well.
After expression for 24H, the cells are harvested by treatment with trypsin (Gibco, ref 25300-054), washed, and then dispensed into 96-well plates (reference 353072, Beckton Dickinson). 50 μl of DMEM culture medium are then added to each well.
The activity of a candidate inhibitor compound is tested by adding 25 μl of this diluted compound to the well already containing 50 μl of the cell culture, and the luciferase activity is determined 24 H later in each well using the DualGlo assay kit according to the recommendations of the supplier (Promega).

The target of assay [2] is peptide-phage 08B2S3 (fd phage) (UniProt P03661).
The target of assay [3] is peptide-phage 07B2S3 (fd phage) (UniProt P03661).

For W P A W L P (WPAWLP) [SEQ ID No. 11], in assay [1] (COS-7 cells, 10 to 50 μM of the peptide, compared with a control molecule, various times and periods of addition (FIG. 5B)), the “biological activity on the Nef-SH3 interaction (firefly/renilla luciferase ratio)” value was “does not show any notable biological activity at low concentration”. One may read the IC50 as the concentration at which inhibition is half-maximal. High values mean a need for much substance, low ones inhibition by little substance. With “NefΔ1-57 protein (Nef HIV-1 LAI, residues 1 to 57 deleted) (from UniProt P03406 58-206)”, the IC50 in assay [2] and in assay [3] was 1 µM throughout. As to “R R R R R R R R W P A W L P [SEQ ID No. 17]”, the “repression of the Nef-SH3 interaction as measured in the cell assay” value in assay [1] is “repress the Nef-SH3 interaction as measured in the cell assay, in a dose-dependent manner”. Still for that read-out and setting: the same measure for “R Q I K I W F Q N R Nle K W K K [SEQ ID No. 15]”: “repress the Nef-SH3 interaction as measured in the cell assay, in a dose-dependent manner”.

Regarding “R Ahx R Ahx R Ahx R Ahx R Ahx R Ahx R W P A W L P [SEQ ID No. 19]”, the “repression of the Nef-SH3 interaction as measured in the cell assay” value in assay [1] was “repress the Nef-SH3 interaction as measured in the cell assay, in a dose-dependent manner”.
